No end group written: not given here. *: point of attachment. Biotin = O=C1N[C@H]2[C@H](CS[C@H]2CCCCC(=O)*)N1
Legend:
[1] = biological target: T1, Aβ1-42 peptide (Homo sapiens, UniProt P05067); assay: Experiment of inhibition of amyloid β fibrillogenesis (thioflavine T fluorescence); type: biochemical; settings: peptide 1.65, 16.5, 33 nM; Aβ1-42 40 μM, phosphate buffer pH 7.0; 0, 6, 24 hours; FIG. 8
T1 construct: Aβ1-42 was dissolved at a concentration of 40 μM in 20 mM phosphate buffer
Method: The synthesized peptide (TAT-B6-L1, B6-L1-TAT, TAT-B7-C15, or TAT-B7-S15) was added at various concentrations (1.65 nM, 16.5 nM, and 33 nM) to the Aβ1-42 peptide diluted to 40 μM using 20 mM phosphate buffer (pH 7.0). The sample (10 μl) was recovered 0, 6, and 24 hours thereafter, 90 μl of 11 μM thioflavine T (Sigma)/phosphate buffer was added, and fluorescence intensity at 482 nm generated by the excitation light at 450 nm was measured using a multilabel plate counter, Wallac 1420 ARVO sx (Perkin-Elmer; Wellesley, Mass.).
Results of measuring activity of inhibiting Aβ1-42 fibrillogenesis by a fusion peptide of TAT and B6-L1, B7-C15, or B7-S15 are shown in FIG. 8. The experiment of inhibition of fibrillogenesis was conducted according to the procedures described in the experiment of inhibition of fibrillogenesis above.

[2] = biological target: T2, Aβ oligomers and Aβ fibers (Homo sapiens, UniProt P05067); assay: Experiment of precipitation of Aβ conformers by biotinylated peptide with streptavidin-magnet beads, Western blot; type: binding; settings: biotinylated peptide added 1.5 hours after dissolution of Aβ1-42, FIG. 9
T2 construct: Aβ1-42 was dissolved at a concentration of 40 μM in 20 mM phosphate buffer
T2 sequence (P05067 672-713 limits assumed): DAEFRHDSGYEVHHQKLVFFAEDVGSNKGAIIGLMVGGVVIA
Method: Aβ1-42 was dissolved at a concentration of 40 μM in 20 mM phosphate buffer (pH 7.0). The TAT-B6-L1 or TAT-B7-C15 peptide adjusted to 40 μM was added 1.5 hours thereafter at a ratio of 1:1 by liquid volume, and the reaction was allowed to proceed at 37° C. for 1 hour (final concentration: Aβ (20 μM)/synthesized peptide (20 μM)). After the reaction, an aliquot thereof was sampled as a sample before immunoprecipitation (“Before precipitation”), and the remaining sample was reacted with M-280 streptavidin-magnet beads (Dynal Biotech, Oslo, Norway) adjusted to 20 μg/μl on ice for 1 hour at a ratio of 1:1 by liquid volume (final concentration: Aβ (10 μM)/synthesized peptide (10 μM)/beads (10 μg/μl)). After the reaction, the beads were precipitated using a magnet to obtain “Supernatant.” To the precipitated beads, PBS was added in a liquid volume equal to that of the recovered supernatant to obtain a “Precipitate.” Each obtained sample was electrophoresed and subjected to Western blot analysis using anti-Aβ antibodies.
Aβ1-42 was dissolved at a concentration of 40 μM in 20 mM phosphate buffer (pH 7.0). The biotinylated TAT-B6-L1 or TAT-B7-C15 peptide was added thereto 1.5 hours thereafter, and the conjugates were precipitated using streptavidin-magnet beads.

[3] = test system: B6 scFv; assay: ELISA: binding of B6 scFv to plate-coated synthesized TAT fusion peptide; design: species or system human; settings: ELISA plate coated with peptide 200 ng/well; B6 scFv at various concentrations; FIG. 7
Chain of B6 scFv (as listed by the source): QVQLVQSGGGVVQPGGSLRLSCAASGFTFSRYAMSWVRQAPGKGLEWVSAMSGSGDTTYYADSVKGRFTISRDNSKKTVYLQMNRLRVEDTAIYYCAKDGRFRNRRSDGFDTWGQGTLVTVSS
Chain of B6 scFv (as listed by the source): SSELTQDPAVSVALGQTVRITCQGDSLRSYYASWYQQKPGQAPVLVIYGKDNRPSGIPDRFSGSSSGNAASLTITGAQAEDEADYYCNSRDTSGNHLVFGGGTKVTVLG
Method: (5) The fusion peptide of TAT and B6-L1 was recognized by B6 scFv (FIG. 7). An ELISA plate was coated with the synthesized peptide TAT-B6-L1 or B6-L1-TAT under conditions of 200 ng/well. After addition of B6 scFv at various concentrations, binding activity thereof was inspected. A control peptide used was an unrelated peptide (GSGGGSCGYWRSEWGLCG)(SEQ ID NO: 32).

T1 sequence (P05067 672-713 limits assumed): as the sequence (P05067 672-713 limits assumed) above

## GSGGGSCGYWRSEWGLCG (Designed peptide based on the sequence unrelated to B6 scFv) [control peptide, reference compound]
[1]
  activity of inhibiting Aβ1-42 fibrillogenesis: no inhibiting activity
[2]
  precipitation of Aβ oligomers or Aβ fibers by the peptide: No precipitation reaction was observed

## TAT-B6-L1: B6-L1 sequence having a TAT sequence fused at the amino terminus, SEQ ID NO: 24 (Biotin-YGRKKRRQRRRGMLDIFAPIRHV)
[3]
  binding activity of B6 scFv to coated peptide: Binding reaction dependent on the amount of B6 scFv was observed
[1]
  activity of inhibiting Aβ1-42 fibrillogenesis: demonstrated to have the activity of inhibiting fibrillogenesis
[2]
  precipitation of Aβ oligomers or Aβ fibers by the peptide: such Aβ oligomers or Aβ fibers were observed in the precipitate

## TAT-B7-C15: B7-C15 sequence (glycine added to carboxyl terminus) having a TAT sequence fused at the amino terminus, SEQ ID NO: 26 (Biotin-YGRKKRRQRRRCYGTKPWMCG; cysteine pairing not given here)
[1]
  activity of inhibiting Aβ1-42 fibrillogenesis: demonstrated to have the activity of inhibiting fibrillogenesis
[2]
  precipitation of Aβ oligomers or Aβ fibers by the peptide: such Aβ oligomers or Aβ fibers were observed in the precipitate

## TAT-B7-S15: B7-S15 sequence having a TAT sequence fused at the amino terminus, SEQ ID NO: 27 (Biotin-YGRKKRRQRRRSYGTKPWMSG)
[1]
  activity of inhibiting Aβ1-42 fibrillogenesis: demonstrated to have the activity of inhibiting fibrillogenesis

## B6-L1-TAT: B6-L1 sequence having a TAT sequence fused at the carboxyl terminus, SEQ ID NO: 25 (Biotin-GMLDIFAPIRHVYGRKKRRQRRR)
[3]
  binding activity of B6 scFv to coated peptide: Binding reaction dependent on the amount of B6 scFv was observed
[1]
  activity of inhibiting Aβ1-42 fibrillogenesis: demonstrated to have the activity of inhibiting fibrillogenesis

— patent US8586706B2, “Peptide vaccine using mimic molecules of amyloid β peptide” (Kagoshima University, priority 2007, dated 2013)
